Measurements: IntAct's records for PubMed 12134079

B1: "Bis(monoacylglycero)phosphate synthase CLN5" (Homo sapiens), O75503 (parent)
chain: MAQEVDTAQGAEMRRGAGAARGRASWCWALALLWLAVVPGWSRVSGIPSRRHWPVPYKRFDFRPKPDPYCQAKYTFCPTGSPIPVMEGDDDIEVFRLQAPVWEFKYGDLLGHLKIMHDAIGFRSTLTGKNYTMEWYELFQLGNCTFPHLRPEMDAPFWCNQGAACFFEGIDDVHWKENGTLVQVATISGNMFNQMAKWVKQDNETGIYYETWNVKASPEKGAETWFDSYDCSKFVLRTFNKLAEFGAEFKNIETNYTRIFLYSGEPTYLGNETSVFGPTGNKTLGLAIKRFYYPFKPHLPTKEFLLSLLQIFDAVIVHKQFYLFYNFEYWFLPMKFPFIKITYEEIPLPIRNKTLSGL
partner: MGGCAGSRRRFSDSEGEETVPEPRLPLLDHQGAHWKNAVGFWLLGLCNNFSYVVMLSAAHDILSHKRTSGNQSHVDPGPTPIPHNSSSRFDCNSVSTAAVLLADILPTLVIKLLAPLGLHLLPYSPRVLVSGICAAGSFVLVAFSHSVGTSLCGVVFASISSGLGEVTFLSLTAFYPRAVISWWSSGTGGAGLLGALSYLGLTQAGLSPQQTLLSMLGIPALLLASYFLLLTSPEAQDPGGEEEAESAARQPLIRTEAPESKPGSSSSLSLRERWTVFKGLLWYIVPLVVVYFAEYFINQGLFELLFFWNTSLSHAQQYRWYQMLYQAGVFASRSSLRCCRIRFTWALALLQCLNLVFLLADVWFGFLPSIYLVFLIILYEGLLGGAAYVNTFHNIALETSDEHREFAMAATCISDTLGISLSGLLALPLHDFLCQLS

Variants of: B1
Conditions: with cln3_human CLN3, Q13286

effect of a mutation on the interaction | Variant
with no effect | D230N
